Data on 2 substances can be found in article doi:10.1101/2025.09.22.677823.

Assay [1] concerns the target Human adenovirus 7 fiber (human adenovirus 7). The assay can be described thus: cryo-EM structure.
Assay [2] has as its target Human adenovirus 7 penton base (human adenovirus 7). The experiment in a line: cryo-EM structure.

The term stoichiometry N denotes a count of units in the complex or per binding partner. In assay [1], “Human adenovirus 7 fiber (natural protein)” showed a stoichiometry N of 3. “Human adenovirus 7 penton base (natural protein)” had a stoichiometry N in assay [2] of 5.
